The values below come from patent US9297028B2, “Fermentive production of four carbon alcohols” (Butamax Advanced Biofuels LLC, priority 2005, dated 2016).

A short description of data set [1]: Hydroxybutyryl-CoA dehydrogenase activity (rate of oxidation of NADH, absorbance at 340 nm). The format is biochemical. On the procedure:
Hydroxybutyryl-CoA dehydrogenase activity was determined by measuring the rate of oxidation of NADH as measured by the decrease in absorbance at 340 nm. A standard assay mixture contained 50 mM MOPS, pH 7.0, 1 mM DTT and 0.2 mM NADH. The cocktail was equilibrated for 5 min at 37° C. and then the cell free extract was added. Reactions were initiated by addition of the substrate, 0.1 mM acetoacetyl-CoA. In one typical assay, the specific activity of the BHBD protein in the induced culture was determined to be 57.4 μmol mg^−1 min^−1 compared to 0.885 μmol mg^−1 min^−1 in the uninduced culture.
(§1) For enzyme activity analysis, a single colony of each strain was streaked onto a fresh plate containing SD minimal drop out medium and incubated at 30° C. for 2 days. The cells on this plate were used to inoculate 20 mL of SD drop out medium and in a 125 mL shake flask and grown overnight at 30° C., with shaking at 250 rpm. The optical density (OD600) of the overnight culture was measured, and the culture was diluted to an OD600=0.1 in 250 mL of the same medium in a 1.0 L shake flask, and grown at 30° C. with shaking at 250 rpm to an OD600 of between 0.8 to 1.0. The cells were then harvested by centrifugation at 2000×g for 10 min, and resuspended in 20 mL of 50 mM Tris-HCl buffer, pH 8.5. Enzyme assays were performed as described above.

Data set [2] can be described thus: Acetoacetyl-CoA thiolase activity in cell free extracts (decrease in absorbance at 303 nm). The format is biochemical. On the procedure:
Acetoacetyl-CoA thiolase activity in the cell free extracts was measured as degradation of a Mg^2+-acetoacetyl-CoA complex by monitoring the decrease in absorbance at 303 nm. Standard assay conditions were 100 mM Tris-HCl pH 8.0, 1 mM DTT (dithiothreitol) and 10 mM MgCl2. The cocktail was equilibrated for 5 min at 37° C.; then the cell-free extract was added. The reaction was initiated with the addition of 0.05 mM acetoacetyl-CoA plus 0.2 mM CoA. Protein concentration was measured by either the Bradford method or by the Bicinchoninic Kit (Sigma, catalog no. BCA-1). Bovine serum albumin (Bio-Rad, Hercules, Calif.) was used as the standard in both cases. In one typical assay, the specific activity of the ThlA protein in the induced culture was determined to be 16.0 μmol mg^−1 min^−1 compared to 0.27 μmol mg^−1 min^−1 in the uninduced culture.
as §1

Setting [3] is: yeast strain DPD5200 (BY4743/pNY103), standard conditions.
[4] abbreviates: yeast strain DPD5206 (BY4741/pNY102).

For “BHBD: 3-hydroxybutyryl-CoA dehydrogenase encoded by hbd from C. acetobutylicum ATCC 824, SEQ ID NO:6”, the Hbd activity in data set [1] (yeast BY4741 containing pNY10, hbd under GPD promoter) is reported as 1.8 U/mg; in data set [1] (yeast strain BY4741 (pNY6), in words) it was “good”; in data set [1] (setting [4]), 0.76 U/mg; in data set [1] (yeast, GALL promoter controlled hbd), 0.40 U/mg. For the same substance, the Hbd enzyme activity in data set [1] (setting [3]) is given as 0.21 U/mg.
Consider “ThlA: acetyl-CoA acetyltransferase encoded by thlA from C. acetobutylicum ATCC 824, SEQ ID NO:2”, for which the ThlA activity result in data set [2] (yeast BY4741 containing pNY10 (thlA with one base deletion, truncated protein), in words) is recorded as “no ThlA activity”; in data set [2] (yeast BY4741 transformed with pNY12 (FBA1 promoter)) it was 1.66 U/mg; in data set [2] (setting [4]) it was 1.24 U/mg. This substance also gave a ThlA enzyme activity in data set [2] (setting [3]) of 0.49 U/mg.
